Molecular target: T1, GST-N (TGEV nucleocapsid protein) (Transmissible gastroenteritis …, UniProt P04134 1-382)
T1 sequence: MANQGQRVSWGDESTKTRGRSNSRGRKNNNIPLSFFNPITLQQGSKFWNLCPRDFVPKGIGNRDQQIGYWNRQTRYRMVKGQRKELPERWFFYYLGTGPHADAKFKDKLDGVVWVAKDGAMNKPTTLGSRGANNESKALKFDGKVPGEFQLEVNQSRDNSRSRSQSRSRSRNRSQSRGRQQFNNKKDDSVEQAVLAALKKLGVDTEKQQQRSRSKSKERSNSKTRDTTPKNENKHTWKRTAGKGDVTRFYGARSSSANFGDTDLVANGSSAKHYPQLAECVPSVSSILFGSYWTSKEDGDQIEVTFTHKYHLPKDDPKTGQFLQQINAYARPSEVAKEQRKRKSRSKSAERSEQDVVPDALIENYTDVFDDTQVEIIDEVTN
Assay: EMSA

**Q.** Does UCGAACUAAACGAAAU (ssRNA) [TRS-L] bind?
**A.** Result: binds

From PMC7111943
